These results are taken from US20210371505A1.

Common to all, as to test: cell-based or functional assay
For test [1], the target named is Hemagglutinin of influenza virus A/Aichi/02/1968-PR8-X31 (H3N2) (Influenza A virus A/Aichi/02/1968-PR8-X31 (H3N2)) (UniProt P03437).
Test [2] has as its target Hemagglutinin of influenza virus A/Philippines/01/1982 (H3N2) (Influenza A virus A/Philippines/01/1982 (H3N2)).
Test [3] addresses Hemagglutinin of influenza virus A/Shanghai/01/2013-PR8 (H7N9) (Influenza A virus A/Shanghai/01/2013-PR8 (H7N9)).

B1: H1H14612N2 (antibody, V domains shown)
VH: EVQLVESGGGLVKPGGSLRLSCAASGFSFSGFSMNWVRQAPGKGLEWVSSISTSGNYMYYADSVKGRFTISRDNAKKSFSLQMNSLRAEDSAIYYCARGGGYNWNLFDYWGQGSLVTVSS
VL: EIVLTQSPGTLSLSPGERATLSCRASQSLNSNYLAWYQQKPGQAPRLLIYGASSRATGIPDRFSGSGSGADFTLTISRLESEDFAVYYCQQYGNSPLTFGGGTKVEIK
On to B1, for which, in test [1], the EC50, complement-dependent cytotoxicity of virus-infected MDCK cells is 126 nM; the IC50 of neutralization, cell viability microneutralization assay on MDCK cells is 5.7 nM; the maximum lysis, complement-dependent cytotoxicity of virus-infected MDCK cells is 86.3%. Besides, the IC50 of neutralization, cell viability microneutralization assay on MDCK cells in test [2] turned out to be 37.6 nM. This molecule also came in with an IC50 of neutralization, cell viability microneutralization assay on MDCK cells in test [3] of over 6670 nM.
